# Experimental data as given in PMC8096239, “Nse5/6 is a negative regulator of the ATPase activity of the Smc5/6 complex”.
# T1: Nse5/6 (Saccharomyces cerevisiae, UniProt Q03718;P40026 1-556;1-464)
# T1 sequence 1: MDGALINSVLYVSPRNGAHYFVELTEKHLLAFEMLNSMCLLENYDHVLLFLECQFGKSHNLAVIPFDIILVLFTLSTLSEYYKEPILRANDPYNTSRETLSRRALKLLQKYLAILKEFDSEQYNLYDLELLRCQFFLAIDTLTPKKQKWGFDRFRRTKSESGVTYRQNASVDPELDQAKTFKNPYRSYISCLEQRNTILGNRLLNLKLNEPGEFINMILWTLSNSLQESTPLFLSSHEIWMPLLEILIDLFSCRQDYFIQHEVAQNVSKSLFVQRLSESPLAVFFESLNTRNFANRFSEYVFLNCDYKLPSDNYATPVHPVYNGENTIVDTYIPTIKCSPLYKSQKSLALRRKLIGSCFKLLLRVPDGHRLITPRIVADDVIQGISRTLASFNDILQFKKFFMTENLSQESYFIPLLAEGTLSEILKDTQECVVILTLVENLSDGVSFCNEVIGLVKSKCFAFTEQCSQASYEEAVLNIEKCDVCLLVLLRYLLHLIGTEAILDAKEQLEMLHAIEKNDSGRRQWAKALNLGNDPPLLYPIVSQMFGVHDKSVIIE
# T1 sequence 2: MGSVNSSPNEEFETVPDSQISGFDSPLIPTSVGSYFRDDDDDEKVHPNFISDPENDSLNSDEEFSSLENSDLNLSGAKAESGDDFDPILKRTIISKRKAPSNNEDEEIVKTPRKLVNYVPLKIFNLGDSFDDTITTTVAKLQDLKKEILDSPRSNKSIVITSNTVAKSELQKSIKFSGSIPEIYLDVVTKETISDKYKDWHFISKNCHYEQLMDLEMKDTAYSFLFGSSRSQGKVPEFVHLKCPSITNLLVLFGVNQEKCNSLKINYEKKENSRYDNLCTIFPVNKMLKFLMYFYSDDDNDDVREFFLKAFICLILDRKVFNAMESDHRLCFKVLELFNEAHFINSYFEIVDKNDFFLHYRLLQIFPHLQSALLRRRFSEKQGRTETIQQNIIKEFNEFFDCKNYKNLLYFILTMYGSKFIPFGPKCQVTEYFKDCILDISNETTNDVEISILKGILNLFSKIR
# B1: oligonucleotide C, self-annealed dsDNA hairpin (structured_DNA)
# DNA: ATCAGTACTTGTCAACACGAGCAGCCCGTATATTCTCCTACAGCACTAAATATAGTGCTGTAGGAGAATATACGGGCTGCTCGTGTTGACAAGTACTGAT
# modifications: internal fluorescein-dT (iFT), between S3 and S4 (position 51, in loop)
# Legend:
# [1] = molecular target: Smc5/6 core complex (S5-S6-N2) (Saccharomyces cerevisiae, UniProt Q08204;Q12749;P38632 1-1093;1-1114;1-267); assay: EMSA; some aggregated material in wells at high concentration; EMSA: 200 nM hairpin, 20 mM HEPES-NaOH pH 7.5, 150 mM NaCl, 0.5 mM TCEP, 30 min at 4 C; 0.8% TBE-agarose gel, 50 V, 3 h, 4 C; settings: protein: recombinant, tags: Smc5-FLAG, Smc6-AVI-HIS, HA-Nse2, copies: 1;1;1, label: fluorescein on position 5 of thymine, 6-carbon spacer, 48 bp stem, 4 nt loop AATA, blunt end
# [2] = molecular target: T1, Nse5/6; assay: EMSA; more extensive concentration range; EMSA: 200 nM hairpin, 20 mM HEPES-NaOH pH 7.5, 150 mM NaCl, 0.5 mM TCEP, 30 min at 4 C; 0.8% TBE-agarose gel, 50 V, 3 h, 4 C; settings: protein: recombinant, tags: Nse5-C.tag (GAAEPEA), HIS-3C-Nse6, copies: 1;1, label: fluorescein on position 5 of thymine, 6-carbon spacer, 48 bp stem, 4 nt loop AATA, blunt end
# [3] = molecular target: Smc5/6 holo-complex (S5-S6-N2/N1-N3-N4) (Saccharomyces cerevisiae, UniProt Q08204;Q12749;P38632;Q07913;Q05541;P43124 1-1093;1-1114;1-267;1-336;1-303;1-402); assay: EMSA; Hill slope 3.5; 200 nM DNA; two shifted species; 3 repeats; EMSA: 200 nM hairpin, 20 mM HEPES-NaOH pH 7.5, 150 mM NaCl, 0.5 mM TCEP, 30 min at 4 C; 0.8% TBE-agarose gel, 50 V, 3 h, 4 C; settings: protein: recombinant, tags: Smc5-FLAG, Smc6-AVI-HIS, HA-Nse2, HIS-TEV-Nse1, Nse3 untagged, Nse4-HALO-Myc, copies: 1;1;1;1;1;1, label: fluorescein on position 5 of thymine, 6-carbon spacer, 48 bp stem, 4 nt loop AATA, blunt end
# Smc5/6 core complex (S5-S6-N2), sequence (Q08204 whole entry, chain 1 of 3): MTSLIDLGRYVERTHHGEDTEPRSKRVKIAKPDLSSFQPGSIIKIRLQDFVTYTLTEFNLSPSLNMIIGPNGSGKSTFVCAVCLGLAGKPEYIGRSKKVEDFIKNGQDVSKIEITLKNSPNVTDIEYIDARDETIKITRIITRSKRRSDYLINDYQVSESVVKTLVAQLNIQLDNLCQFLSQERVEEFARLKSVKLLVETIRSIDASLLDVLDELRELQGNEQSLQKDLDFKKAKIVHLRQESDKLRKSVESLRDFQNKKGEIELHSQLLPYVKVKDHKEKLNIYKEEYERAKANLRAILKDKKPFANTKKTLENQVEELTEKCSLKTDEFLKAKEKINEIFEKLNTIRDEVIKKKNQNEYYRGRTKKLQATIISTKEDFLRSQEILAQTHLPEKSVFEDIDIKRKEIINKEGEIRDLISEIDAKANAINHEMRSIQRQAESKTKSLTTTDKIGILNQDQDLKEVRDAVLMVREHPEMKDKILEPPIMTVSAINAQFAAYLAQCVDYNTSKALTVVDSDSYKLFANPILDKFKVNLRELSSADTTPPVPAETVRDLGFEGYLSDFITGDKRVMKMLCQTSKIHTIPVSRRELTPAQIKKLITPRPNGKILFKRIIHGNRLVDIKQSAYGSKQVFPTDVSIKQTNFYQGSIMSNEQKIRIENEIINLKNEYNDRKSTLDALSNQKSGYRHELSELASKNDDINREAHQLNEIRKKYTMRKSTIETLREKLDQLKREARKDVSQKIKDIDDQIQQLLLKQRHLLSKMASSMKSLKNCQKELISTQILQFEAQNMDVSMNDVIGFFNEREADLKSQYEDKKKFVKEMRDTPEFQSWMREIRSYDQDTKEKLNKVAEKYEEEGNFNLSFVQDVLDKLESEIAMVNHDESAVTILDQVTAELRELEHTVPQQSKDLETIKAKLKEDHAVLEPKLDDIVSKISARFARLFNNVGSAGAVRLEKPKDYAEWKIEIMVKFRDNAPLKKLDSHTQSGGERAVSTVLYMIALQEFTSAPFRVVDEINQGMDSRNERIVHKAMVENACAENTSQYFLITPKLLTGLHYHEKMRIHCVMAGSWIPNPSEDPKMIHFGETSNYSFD
# Smc5/6 core complex (S5-S6-N2), sequence (Q12749 whole entry, chain 2 of 3): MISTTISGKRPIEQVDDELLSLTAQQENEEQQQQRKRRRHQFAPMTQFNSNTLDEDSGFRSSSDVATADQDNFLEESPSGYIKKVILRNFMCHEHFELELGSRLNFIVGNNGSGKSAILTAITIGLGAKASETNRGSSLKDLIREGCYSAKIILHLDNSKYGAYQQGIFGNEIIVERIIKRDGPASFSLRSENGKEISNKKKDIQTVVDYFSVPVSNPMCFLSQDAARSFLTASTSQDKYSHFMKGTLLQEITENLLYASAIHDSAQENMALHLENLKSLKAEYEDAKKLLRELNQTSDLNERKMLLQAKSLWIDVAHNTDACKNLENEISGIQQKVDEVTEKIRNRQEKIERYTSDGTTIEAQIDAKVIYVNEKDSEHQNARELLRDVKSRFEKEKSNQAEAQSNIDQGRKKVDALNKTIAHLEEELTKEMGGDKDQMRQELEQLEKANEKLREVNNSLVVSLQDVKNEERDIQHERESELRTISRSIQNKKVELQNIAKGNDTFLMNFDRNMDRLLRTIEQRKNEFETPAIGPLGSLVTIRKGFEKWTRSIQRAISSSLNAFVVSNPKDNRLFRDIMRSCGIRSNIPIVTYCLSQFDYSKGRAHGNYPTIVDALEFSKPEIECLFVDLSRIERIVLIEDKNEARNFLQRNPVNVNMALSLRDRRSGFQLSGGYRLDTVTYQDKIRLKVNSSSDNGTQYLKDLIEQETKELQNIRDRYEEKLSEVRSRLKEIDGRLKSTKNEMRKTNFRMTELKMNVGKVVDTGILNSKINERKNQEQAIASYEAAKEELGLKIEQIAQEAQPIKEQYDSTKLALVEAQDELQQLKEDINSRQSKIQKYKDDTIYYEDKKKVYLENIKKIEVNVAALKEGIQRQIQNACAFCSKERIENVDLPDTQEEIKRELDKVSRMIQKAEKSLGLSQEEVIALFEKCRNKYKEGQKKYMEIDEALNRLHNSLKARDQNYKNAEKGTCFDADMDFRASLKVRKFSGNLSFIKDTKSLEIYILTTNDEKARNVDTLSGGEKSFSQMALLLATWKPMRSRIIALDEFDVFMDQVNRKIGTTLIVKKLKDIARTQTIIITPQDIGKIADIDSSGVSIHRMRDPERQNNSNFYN
# Smc5/6 core complex (S5-S6-N2), sequence (P38632 whole entry, chain 3 of 3): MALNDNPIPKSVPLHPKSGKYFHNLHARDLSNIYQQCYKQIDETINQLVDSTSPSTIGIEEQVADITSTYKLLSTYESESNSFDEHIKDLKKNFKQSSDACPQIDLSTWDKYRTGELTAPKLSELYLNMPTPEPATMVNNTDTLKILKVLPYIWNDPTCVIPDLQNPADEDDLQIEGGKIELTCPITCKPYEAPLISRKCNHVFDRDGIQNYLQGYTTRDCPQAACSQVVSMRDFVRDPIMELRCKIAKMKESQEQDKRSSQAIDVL
binder,measurement,setting,value
B1,binding result,[1],no binding
same,binding result,[2],no binding
same,Kd,[3],~0.22 µM
